Test results as given in publication PMC10319874 (Scientific Reports, 2023).

B1: recombinant RgpA propeptide (rRgpA-PP) (domain or fragment)
chain: QQTELGRNPNVRLLESTQQSVTKVQFRMDNLKFTEVQTPKGMAQVPTYTEGVNLSEKGMPTLPILSRSLAVSDTREMKVEVVSSKFIEKKNVLIAPSKGMIMRNEDPKKIPYVYGKSYSQNKFFPGEIATLDDPFILRDVRGQVVNFAPLQYNPVTKTLRIYTEITVAVSETSEQGKNILNKKGTFAGFEDTYKRMFMNYEPGR
B2: recombinant RgpB propeptide (rRgpB-PP) (domain or fragment)
chain: QPAERGRNPQVRLLSAEQSMSKVQFRMDNLQFTGVQTSKGVAQVPTFTEGVNISEKGTPILPILSRSLAVSETRAMKVEVVSSKFIEKKDVLIAPSKGVISRAENPDQIPYVYGQSYNEDKFFPGEIATLSDPFILRDVRGQVVNFAPLQYNPVTKTLRIYTEIVVAVSETAEAGQNTISLVKNSTFTGFEDIYKSVFMNYEATR

How the values were obtained:
[1] = target: histidine-tagged monomeric RgpA (rRgpAH) (Porphyromonas gingivalis W50, UniProt P28784 228-658); assay: […], Tris buffer (50 mM Tris, 150 mM NaCl, 5 mM CaCl2, pH 8.0) […]; details: both partners purified
[2] = target: RgpB (Porphyromonas gingivalis, UniProt P95493 230-736); assay: as above; details: both partners purified
Sequence of RgpB (P95493 230-736): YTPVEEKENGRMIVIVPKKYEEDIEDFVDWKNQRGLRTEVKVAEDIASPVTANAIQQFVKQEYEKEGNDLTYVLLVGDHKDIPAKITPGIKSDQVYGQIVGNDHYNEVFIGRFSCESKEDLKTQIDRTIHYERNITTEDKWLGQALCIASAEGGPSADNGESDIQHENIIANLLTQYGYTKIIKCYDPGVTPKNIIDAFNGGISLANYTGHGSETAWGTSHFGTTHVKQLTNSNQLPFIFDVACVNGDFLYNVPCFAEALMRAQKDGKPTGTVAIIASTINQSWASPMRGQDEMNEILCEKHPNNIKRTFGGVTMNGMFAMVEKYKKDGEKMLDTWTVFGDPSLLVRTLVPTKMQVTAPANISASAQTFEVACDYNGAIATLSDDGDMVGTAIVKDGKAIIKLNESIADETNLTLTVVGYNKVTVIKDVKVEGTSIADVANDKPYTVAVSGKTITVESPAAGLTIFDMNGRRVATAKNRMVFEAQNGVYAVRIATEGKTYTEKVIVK

Sequence of histidine-tagged monomeric RgpA (rRgpAH) (P28784 228-658, tags or fused parts left off): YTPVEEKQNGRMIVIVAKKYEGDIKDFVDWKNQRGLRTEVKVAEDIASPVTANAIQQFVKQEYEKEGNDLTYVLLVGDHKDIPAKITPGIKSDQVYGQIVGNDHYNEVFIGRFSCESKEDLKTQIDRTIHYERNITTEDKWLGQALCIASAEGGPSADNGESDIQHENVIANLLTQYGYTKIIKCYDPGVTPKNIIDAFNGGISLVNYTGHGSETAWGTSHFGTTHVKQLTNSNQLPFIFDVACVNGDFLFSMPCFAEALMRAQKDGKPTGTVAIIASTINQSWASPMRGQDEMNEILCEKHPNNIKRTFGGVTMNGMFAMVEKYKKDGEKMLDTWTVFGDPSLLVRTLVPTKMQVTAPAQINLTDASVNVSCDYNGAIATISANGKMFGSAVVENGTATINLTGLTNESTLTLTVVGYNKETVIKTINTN

Row | Binder | Ki [1] | Ki [2]
1 | B1 | 13 nM | 15 nM
2 | B2 | 22 nM | 29 nM
